From paper doi:10.1101/2022.02.11.480038 come the findings set out here.

Assay [1] deals with GABARAP K48A mutant (human) (UniProt O95166). Nature of the assay: ITC. On the technique in general: ITC needs no label: the signal is the heat of the interaction.
In assay [2] the target is GABARAP Y5F H9A mutant (human) (UniProt O95166). Nature of the assay: ITC.

The Kd is the constant that tells how readily two partners part at equilibrium. As for “phosphorylated TEX264 LIR (residues 269-278 with p-S271,p-S272) (peptide)”, the Kd in assay [1] and in assay [2] was 2000 nM throughout.
